For this data set the following is noted: Escherichia coli (strain K12), pH 7.6, Thermal, MOPS 25 mM, Potassium chloride 100 mM, whole UniProt chain shown.

B1: Ribose import binding protein RbsB wild type, P02925 (protein)
chain: MNMKKLATLVSAVALSATVSANAMAKDTIALVVSTLNNPFFVSLKDGAQKEADKLGYNLVVLDSQNNPAKELANVQDLTVRGTKILLINPTDSDAVGNAVKMANQANIPVITLDRQATKGEVVSHIASDNVLGGKIAGDYIAKKAGEGAKVIELQGIAGTSAARERGEGFQQAVAAHKFNVLASQPADFDRIKGLNVMQNLLTAHPDVQAVFAQNDEMALGALRALQTAGKSDVMVVGFDGTPDGEKAVNDGKLAATIAQLPDQIGAKGVETADKVLKGEKVQAKYPVDLKLVVKQ
As usually defined, the Tm is the temperature at which the thermal transition is half complete. As to B1, the Tm reads like this: (Activity) 62.6 °C; (Quantitative cysteine reactivity) 62.6 °C.
